Reference: paper PMC8473724
Blank lines part the entries; values can stand above or below the substance they belong to.

Tests used:
GRB2 = GRB2 (UniProt P62993); assay: anti-Myc co-IP, anti-GRB2 immunoblot; conditions: reference: CD22-Myc wild type; sites Y807
ANKLE2 = assay: anti-FLAG co-immunoprecipitation, SILAC LC-MS; conditions: Ramos PTP1B KO cells; n = 3; read off a plot; scale: log10 SILAC ratio
ARHGAP12 iso 2 = assay: anti-FLAG co-immunoprecipitation, SILAC LC-MS; conditions: Ramos PTP1B KO cells; n = 3; read off a plot; scale: log10 SILAC ratio
ARHGAP12 iso 3 = assay: anti-FLAG co-immunoprecipitation, SILAC LC-MS; conditions: Ramos PTP1B KO cells; n = 3; read off a plot; scale: log10 SILAC ratio
CDC20 = assay: anti-FLAG co-immunoprecipitation, SILAC LC-MS; conditions: Ramos PTP1B KO cells; n = 3; read off a plot; scale: log10 SILAC ratio
PTRH2 = assay: anti-FLAG co-immunoprecipitation, SILAC LC-MS; conditions: Ramos PTP1B KO cells; n = 3; read off a plot; scale: log10 SILAC ratio
TNK2 = assay: anti-FLAG co-immunoprecipitation, SILAC LC-MS; conditions: Ramos PTP1B KO cells; n = 3; read off a plot; scale: log10 SILAC ratio
[1] = molecular target: intersectin-2 (ITSN2) [human (endogenous in Ramos)]; assay: anti-FLAG co-immunoprecipitation, SILAC LC-MS; conditions: Ramos PTP1B KO cells; n = 3; read off a plot; scale: log10 SILAC ratio

binding against the reference (GRB2): lost
Substance: CD22 (from UniProt P20273) Y807F

enrichment (ANKLE2): 0.97
enrichment (ARHGAP12 iso 2): 1.6
enrichment (ARHGAP12 iso 3): 1.2
enrichment (CDC20): 0.88
enrichment (PTRH2): 1.4
enrichment (TNK2): 0.6
Substance: FLAG-PTP1B WT (protein tyrosine phosphatase 1B) (from UniProt P18031) D181A; Y46F

enrichment [1]: 0.5
Substance: FLAG-PTP1B WT (protein tyrosine phosphatase 1B) mutant D181A; Y46F [not stated] / intersectin-2 (ITSN2) [human (endogenous in Ramos)] chain 1 Y46F, chain 1 D181A
